The values below come from paper PMC5062252, “High-resolution crystal structure of the therapeutic antibody pembrolizumab bound to the human PD-1” (Scientific Reports, 2016).

The target of the assay is T1, extracellular domain of human PD-1 (PD-1ECD), residues 32-160, C93S (human, C93S (stands in the printed letters)).
T1 construct: additional N-terminal residues retained after restriction site cloning; additional C-terminal residues retained after cloning and TEV cleavage; also called programmed cell death-1; CD279; not shown: His6, C-terminal, cleaved
T1 chain: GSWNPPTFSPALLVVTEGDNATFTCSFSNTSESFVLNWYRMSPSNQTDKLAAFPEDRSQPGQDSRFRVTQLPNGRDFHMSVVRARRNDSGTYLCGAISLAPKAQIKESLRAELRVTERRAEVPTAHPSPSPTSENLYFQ
Briefly: SEC; analytical gel filtration of the PemFv/PD-1ECD complex; data not shown. The settings on record: both partners purified.

B1: Fv fragment of pembrolizumab (PemFv) (other)
VL: EIVLTQSPATLSLSPGERATLSCRASKGVSTSGYSYLHWYQQKPGQAPRLLIYLASYLESGVPARFSGSGSGTDFTLTISSLEPEDFAVYYCQHSRDLPLTFGGGTKVEIKTSENLYFQ
VH: QVQLVQSGVEVKKPGASVKVSCKASGYTFTNYYMYWVRQAPGQGLEWMGGINPSNGGTNFNEKFKNRVTLTTDSSTTTAYMELKSLQFDDTAVYYCARRDYRFDMGFDYWGQGTTVTVSS
notes: pembrolizumab light chain variable region (PemVL); additional C-terminal residues retained after TEV cleavage; pembrolizumab heavy chain variable region (PemVH); Fv fragment: VL and VH as two separate chains, not linked; also called pembrolizumab Fv; Keytruda; not shown: His6, C-terminal, cleaved; copies: 1 + 1
In general, stoichiometry N refers to the number of molecules, sites or subunits per partner or assembly. As to B1, the “stoichiometry N” value was found to be 1.
